B1: Full-length FLAG-epitope-tagged human ERα (receptor, UniProt P03372 1-595, looked up)
chain: MTMTLHTKASGMALLHQIQGNELEPLNRPQLKIPLERPLGEVYLDSSKPAVYNYPEGAAYEFNAAAAANAQVYGQTGLPYGPGSEAAAFGSNGLGGFPPLNSVSPSPLMLLHPPPQLSPFLQPHGQQVPYYLENEPSGYTVREAGPPAFYRPNSDNRRQGGRERLASTNDKGSMAMESAKETRYCAVCNDYASGYHYGVWSCEGCKAFFKRSIQGHNDYMCPATNQCTIDKNRRKSCQACRLRKCYEVGMMKGGIRKDRRGGRMLKHKRQRDDGEGRGEVGSAGDMRAANLWPSPLMIKRSKKNSLALSLTADQMVSALLDAEPPILYSEYDPTRPFSEASMMGLLTNLADRELVHMINWAKRVPGFVDLTLHDQVHLLECAWLEILMIGLVWRSMEHPGKLLFAPNLLLDRNQGKCVEGMVEIFDMLLATSSRFRMMNLQGEEFVCLKSIILLNSGVYTFLSSTLKSLEEKDHIHRVLDKITDTLIHLMAKAGLTLQQQHQRLAQLLLILSHIRHMSNKGMEHLYSMKCKNVVPLYDLLLEMLDAHRLHAPTSRGGASVEETDQSHLATAGSTSSHSLQKYYITGEAEGFPATV

Columns and labels:
[1] = biological target: B1; test: fluorescence polarisation
[2] = biological target: Full-length FLAG-epitope-tagged human SRC1a (human, UniProt Q15788-1 1-1441); test: fluorescence polarisation
Full-length FLAG-epitope-tagged human SRC1a, sequence (Q15788 whole entry): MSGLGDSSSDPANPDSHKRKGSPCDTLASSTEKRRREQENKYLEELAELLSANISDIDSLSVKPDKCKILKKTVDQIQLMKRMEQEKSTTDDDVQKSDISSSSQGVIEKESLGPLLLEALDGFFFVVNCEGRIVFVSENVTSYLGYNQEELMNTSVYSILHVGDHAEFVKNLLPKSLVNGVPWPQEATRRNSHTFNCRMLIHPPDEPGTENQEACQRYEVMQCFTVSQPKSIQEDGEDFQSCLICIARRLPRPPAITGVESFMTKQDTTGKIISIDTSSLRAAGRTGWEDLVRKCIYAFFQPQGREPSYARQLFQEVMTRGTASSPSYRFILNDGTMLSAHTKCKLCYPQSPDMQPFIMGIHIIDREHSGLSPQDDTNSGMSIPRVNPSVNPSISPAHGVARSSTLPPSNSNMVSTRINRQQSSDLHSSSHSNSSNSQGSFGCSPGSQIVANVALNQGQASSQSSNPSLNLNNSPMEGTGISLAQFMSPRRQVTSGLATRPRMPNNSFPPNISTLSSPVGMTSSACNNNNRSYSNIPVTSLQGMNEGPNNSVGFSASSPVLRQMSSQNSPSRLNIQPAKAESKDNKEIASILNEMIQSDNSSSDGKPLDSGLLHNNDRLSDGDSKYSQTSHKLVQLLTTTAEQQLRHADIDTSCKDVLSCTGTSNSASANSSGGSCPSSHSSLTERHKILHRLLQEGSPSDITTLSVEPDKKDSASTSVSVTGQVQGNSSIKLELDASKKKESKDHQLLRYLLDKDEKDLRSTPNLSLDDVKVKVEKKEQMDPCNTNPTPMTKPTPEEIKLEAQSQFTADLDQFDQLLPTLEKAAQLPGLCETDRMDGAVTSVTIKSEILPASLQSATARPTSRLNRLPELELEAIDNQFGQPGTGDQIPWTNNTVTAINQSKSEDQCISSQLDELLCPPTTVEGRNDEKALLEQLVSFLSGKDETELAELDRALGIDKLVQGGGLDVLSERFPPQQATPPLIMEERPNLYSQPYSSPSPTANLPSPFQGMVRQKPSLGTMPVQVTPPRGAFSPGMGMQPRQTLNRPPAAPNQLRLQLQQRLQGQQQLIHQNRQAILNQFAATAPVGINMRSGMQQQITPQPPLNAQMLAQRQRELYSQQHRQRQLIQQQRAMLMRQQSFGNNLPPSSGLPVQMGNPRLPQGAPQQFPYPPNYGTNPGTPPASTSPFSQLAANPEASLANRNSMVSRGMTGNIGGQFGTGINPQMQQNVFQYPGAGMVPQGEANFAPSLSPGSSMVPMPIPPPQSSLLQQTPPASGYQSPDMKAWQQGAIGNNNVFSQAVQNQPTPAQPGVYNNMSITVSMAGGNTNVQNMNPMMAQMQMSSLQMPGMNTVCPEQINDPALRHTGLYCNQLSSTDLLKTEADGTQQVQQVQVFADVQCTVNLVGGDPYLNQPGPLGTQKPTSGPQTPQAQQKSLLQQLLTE

Row | IC50 [1] [nM] | Kd [2] [nM] | Binder
1 | ~3800 | – | QAQQKSLLQQLLTE [SRC1 NR Box 4 peptide]
2 | – | ~6 | FLAG-epitope-tagged human ERβ (receptor, UniProt Q92731 1-530, looked up) MDIKNSPSSLNSPSSYNCSQSILPLEHGSIYIPSSYVDSHHEYPAMTFYSPAVMNYSIPSNVTNLEGGPGRQTTSPNVLWPTPGHLSPLVVHRQLSHLYAEPQKSPWCEARSLEHTLPVNRETLKRKVSGNRCASPVTGPGSKRDAHFCAVCSDYASGYHYGVWSCEGCKAFFKRSIQGHNDYICPATNQCTIDKNRRKSCQACRLRKCYEVGMVKCGSRRERCGYRLVRRQRSADEQLHCAGKAKRSGGHAPRVRELLLDALSPEQLVLTLLEAEPPHVLISRPSAPFTEASMMMSLTKLADKELVHMISWAKKIPGFVELSLFDQVRLLESCWMEVLMMGLMWRSIDHPGKLIFAPDLVLDRDEGKCVEGILEIFDMLLATTSRFRELKLQHKEYLCVKAMILLNSSMYPLVTATQDADSSRKLAHLLNAVTDALVWVIAKSGISSQQQSMRLANLLMLLSHVRHASNKGMEHLLNMKCKNVVPVYDLLLEMLNAHVLRGCKSSITGSECSPAEDSKSKEGSQNPQSQ
3 | – | ~14 | B1
4 | ~1000 | – | LTERHKILHRLLQE [SRC1 NR Box 2 peptide]

— PMC3708604 (Methods in molecular biology (Clifton, N.J.), 2013)
